Measured values from paper PMC5268773.
pKd: −log10 of the molar value. Read-outs that look alike come from different tables or passages of the source.

Legend:
[1] = target: fibrin (purified fibrin clots) (UniProt P02671)
[2] = target: plasmin (Homo sapiens) (UniProt P00747); test: SPR; conditions: cited from earlier work
[3] = target: plasminogen (Homo sapiens) (UniProt P00747); conditions: cited from earlier work
[4] = target: plasmin (Homo sapiens) (UniProt P00747); conditions: cited from earlier work

streptokinase, sequence (P10520 27-440): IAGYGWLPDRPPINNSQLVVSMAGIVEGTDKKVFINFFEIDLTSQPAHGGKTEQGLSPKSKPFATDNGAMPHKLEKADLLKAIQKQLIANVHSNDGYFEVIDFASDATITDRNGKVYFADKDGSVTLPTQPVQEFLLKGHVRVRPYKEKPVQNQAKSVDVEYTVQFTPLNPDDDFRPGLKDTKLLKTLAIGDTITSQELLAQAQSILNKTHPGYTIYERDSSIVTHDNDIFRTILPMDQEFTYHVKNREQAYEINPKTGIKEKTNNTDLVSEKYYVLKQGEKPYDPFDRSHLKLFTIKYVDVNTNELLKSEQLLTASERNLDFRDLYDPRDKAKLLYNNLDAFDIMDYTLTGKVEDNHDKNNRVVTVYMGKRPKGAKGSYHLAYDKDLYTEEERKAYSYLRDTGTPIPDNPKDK
UniProt P02671, sequence (P02671 36-866, chain 1 of 3): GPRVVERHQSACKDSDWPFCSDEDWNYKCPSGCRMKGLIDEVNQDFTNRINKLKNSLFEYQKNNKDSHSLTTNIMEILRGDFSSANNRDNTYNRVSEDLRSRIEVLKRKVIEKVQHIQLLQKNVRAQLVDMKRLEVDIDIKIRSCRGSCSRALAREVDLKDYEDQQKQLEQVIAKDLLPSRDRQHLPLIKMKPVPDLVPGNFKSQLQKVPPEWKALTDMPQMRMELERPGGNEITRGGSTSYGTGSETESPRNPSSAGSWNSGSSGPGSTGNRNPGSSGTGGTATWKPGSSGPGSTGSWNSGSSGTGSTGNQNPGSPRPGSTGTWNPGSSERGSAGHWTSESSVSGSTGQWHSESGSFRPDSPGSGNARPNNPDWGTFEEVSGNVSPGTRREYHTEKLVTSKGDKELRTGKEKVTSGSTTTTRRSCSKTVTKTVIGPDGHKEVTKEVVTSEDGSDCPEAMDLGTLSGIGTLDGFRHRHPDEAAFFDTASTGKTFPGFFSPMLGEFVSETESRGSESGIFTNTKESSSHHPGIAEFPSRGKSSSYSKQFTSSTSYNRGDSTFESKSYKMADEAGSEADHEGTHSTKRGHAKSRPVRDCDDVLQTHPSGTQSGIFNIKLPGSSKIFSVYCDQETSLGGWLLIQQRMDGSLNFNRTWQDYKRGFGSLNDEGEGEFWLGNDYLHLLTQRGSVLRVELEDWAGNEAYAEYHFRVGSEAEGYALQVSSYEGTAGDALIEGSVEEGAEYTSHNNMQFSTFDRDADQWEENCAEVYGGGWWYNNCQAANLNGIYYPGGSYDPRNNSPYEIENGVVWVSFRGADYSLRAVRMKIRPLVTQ
UniProt P02671, sequence (P02675 45-491, chain 2 of 3, further chain): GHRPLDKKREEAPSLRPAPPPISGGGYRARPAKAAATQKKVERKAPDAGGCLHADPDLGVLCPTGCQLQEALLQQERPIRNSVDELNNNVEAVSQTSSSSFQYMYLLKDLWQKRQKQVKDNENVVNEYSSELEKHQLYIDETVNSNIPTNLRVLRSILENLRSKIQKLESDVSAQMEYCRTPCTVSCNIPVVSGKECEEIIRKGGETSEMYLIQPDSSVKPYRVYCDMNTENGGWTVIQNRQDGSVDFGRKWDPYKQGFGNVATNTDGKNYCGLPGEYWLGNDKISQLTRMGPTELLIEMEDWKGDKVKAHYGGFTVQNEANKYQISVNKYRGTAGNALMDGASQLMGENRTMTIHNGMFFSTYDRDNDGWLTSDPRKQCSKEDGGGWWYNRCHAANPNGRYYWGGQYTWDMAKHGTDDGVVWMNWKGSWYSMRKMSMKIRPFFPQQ
UniProt P02671, sequence (P02679 27-453, chain 3 of 3, further chain): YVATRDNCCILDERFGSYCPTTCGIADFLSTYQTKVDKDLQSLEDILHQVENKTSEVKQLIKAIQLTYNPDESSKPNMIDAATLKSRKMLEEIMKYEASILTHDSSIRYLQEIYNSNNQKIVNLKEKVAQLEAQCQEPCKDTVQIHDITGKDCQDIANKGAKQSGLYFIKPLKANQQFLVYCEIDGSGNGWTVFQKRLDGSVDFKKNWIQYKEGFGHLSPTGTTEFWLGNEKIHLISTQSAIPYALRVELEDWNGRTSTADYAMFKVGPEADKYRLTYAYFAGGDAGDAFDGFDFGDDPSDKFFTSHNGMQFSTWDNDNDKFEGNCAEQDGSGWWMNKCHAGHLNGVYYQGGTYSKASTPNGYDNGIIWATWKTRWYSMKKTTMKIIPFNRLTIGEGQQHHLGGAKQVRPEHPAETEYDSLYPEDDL

Substance | IC50 of tranexamic acid (TA) for inhibition of Pgn activation by rSK-M1GAS in fibrin [1] [nM] | pKd [2] | pKd [3] | pKd [4]
recombinant streptokinase from the M1 type group A streptococcus, Streptococcus pyogenes strain SF370 (rSK-M1GAS) (natural protein) | 133000 |  |  | 
streptokinase (from UniProt P10520) |  | 9.30 | 8.22 | 9.52
